{"source": "patent US20230374147A1", "about": "(HUMMINGBIRD BIOSCIENCE PTE, published 2023)", "binders": {"B1": {"name": "J6M0 (antibody, V domains shown)", "VH": "QVQLVQSGAEVKKPGSSVKVSCKASGGTFSNYWMHWVRQAPGQGLEWMGATYRGHSDTYYNQKFKGRVTITADKSTSTAYMELSSLRSEDTAVYYCARGAIYDGYDVLDNWGQGTLVTVSS", "VL": "DIQMTQSPSSLSASVGDRVTITCSASQDISNYLNWYQQKPGKAPKLLIYYTSNLHSGVPSRFSGSGSGTDFTLTISSLQPEDFATYYCQQYRKLPWTFGQGTKLEIK", "notes": "also called J6M0-hIgG1; anti-BCMA"}}, "key": {"[1]": {"target": "T1, His-tagged cynomolgous macaque BCMA (Acro Biosystems, BCA-C52H7) (cynomolgus macaque, UniProt Q02223 1-54 (human entry))", "T1 construct": "Bought protein; also called cyno BCMA; CyBCMA; not shown: His tag", "assay": "ELISA, coated His-tagged cynomolgus BCMA"}, "[2]": {"target": "T2, human BCMA expressed on cells (human, UniProt Q02223 1-184)", "T2 construct": "the cell line is named under assay; also called wildtype human BCMA", "T2 sequence": "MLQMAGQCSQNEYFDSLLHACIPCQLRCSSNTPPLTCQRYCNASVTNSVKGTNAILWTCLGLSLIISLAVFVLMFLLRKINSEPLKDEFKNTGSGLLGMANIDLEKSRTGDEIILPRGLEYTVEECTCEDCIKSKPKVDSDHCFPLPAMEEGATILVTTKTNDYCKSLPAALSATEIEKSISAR", "assay": "flow cytometry, HEK 293 cells expressing human BCMA"}, "[3]": {"target": "T3, His-tagged human BCMA (Acro Biosystems, Cat. #BCA-H522y) (human, UniProt Q02223 1-54)", "T3 construct": "also called huBCMA; P1; not shown: His tag", "T3 sequence": "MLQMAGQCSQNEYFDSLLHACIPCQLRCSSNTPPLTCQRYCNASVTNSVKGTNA", "assay": "ELISA, reference antibody, coated His-tagged antigen"}, "[4]": {"target": "T4, human TACI expressed on cells (human, UniProt O14836 1-293)", "T4 construct": "also called wildtype human TACI", "T4 sequence": "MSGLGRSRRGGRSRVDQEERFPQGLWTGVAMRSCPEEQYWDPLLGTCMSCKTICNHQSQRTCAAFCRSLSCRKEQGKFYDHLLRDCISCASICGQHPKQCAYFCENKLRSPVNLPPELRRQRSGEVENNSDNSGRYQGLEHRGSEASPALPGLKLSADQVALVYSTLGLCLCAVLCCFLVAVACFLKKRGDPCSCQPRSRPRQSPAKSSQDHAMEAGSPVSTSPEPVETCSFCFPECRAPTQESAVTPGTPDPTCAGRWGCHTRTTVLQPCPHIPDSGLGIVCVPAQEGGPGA", "assay": "flow cytometry, HEK 293 cells transiently expressing human TACI"}, "[5]": {"target": "T5, recombinant his-tagged human TACI (Sinobiological cat #11937-H08H) (human, UniProt O14836 1-165)", "T5 construct": "Bought protein; also called Human TACI-His; huTACI; not shown: His tag", "T5 sequence": "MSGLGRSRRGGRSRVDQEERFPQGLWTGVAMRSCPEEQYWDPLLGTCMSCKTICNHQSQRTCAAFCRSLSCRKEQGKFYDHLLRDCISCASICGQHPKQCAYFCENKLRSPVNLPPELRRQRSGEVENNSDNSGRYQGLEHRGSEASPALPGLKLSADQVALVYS", "assay": "ELISA, coated His-tagged human TACI"}}, "data": [{"binder": "B1", "values": [{"measurement": "EC50 (read off the curve)", "setting": "[1]", "value": "~0.01", "unit": "µg/mL"}, {"measurement": "EC50", "setting": "[2]", "value": 10.1, "unit": "nM"}, {"measurement": "EC50", "setting": "[3]", "value": 0.0126, "unit": "µg/mL"}, {"measurement": "binding result", "setting": "[4]", "value": "no binding (tested: 10 ug/ml)"}, {"measurement": "binding result", "setting": "[5]", "value": "no binding (tested: 10 ug/ml)"}]}]}
